Experimental data taken from patent US20110294738A1, “PTHR1 RECEPTOR COMPOUNDS” (priority 2008, published 2011).
* marks the point of attachment. Palmitoyl = CCCCCCCCCCCCCCCC(=O)*

B1: Compound 58 (peptide)
peptide: Palmitoyl-RETNAGRSDTRQQYRKLLFS-NH2
SMILES: CCCCCCCCCCCCCCCC(=O)N[C@@H](CCCNC(=N)N)C(=O)N[C@@H](CCC(=O)O)C(=O)N[C@H](C(=O)N[C@@H](CC(N)=O)C(=O)N[C@@H](C)C(=O)NCC(=O)N[C@@H](CCCNC(=N)N)C(=O)N[C@@H](CO)C(=O)N[C@@H](CC(=O)O)C(=O)N[C@H](C(=O)N[C@@H](CCCNC(=N)N)C(=O)N[C@@H](CCC(N)=O)C(=O)N[C@@H](CCC(N)=O)C(=O)N[C@@H](Cc1ccc(O)cc1)C(=O)N[C@@H](CCCNC(=N)N)C(=O)N[C@@H](CCCCN)C(=O)N[C@@H](CC(C)C)C(=O)N[C@@H](CC(C)C)C(=O)N[C@@H](Cc1ccccc1)C(=O)N[C@@H](CO)C(N)=O)[C@@H](C)O)[C@@H](C)O
B2: Compound 67 (peptide)
peptide: Palmitoyl-DTRQQYRKLLKS-NH2
SMILES: CCCCCCCCCCCCCCCC(=O)N[C@@H](CC(=O)O)C(=O)N[C@H](C(=O)N[C@@H](CCCNC(=N)N)C(=O)N[C@@H](CCC(N)=O)C(=O)N[C@@H](CCC(N)=O)C(=O)N[C@@H](Cc1ccc(O)cc1)C(=O)N[C@@H](CCCNC(=N)N)C(=O)N[C@@H](CCCCN)C(=O)N[C@@H](CC(C)C)C(=O)N[C@@H](CC(C)C)C(=O)N[C@@H](CCCCN)C(=O)N[C@@H](CO)C(N)=O)[C@@H](C)O
B3: Compound 59 (peptide)
peptide: Palmitoyl-RETNAGRSDTRQQYRKLL-NH2
SMILES: CCCCCCCCCCCCCCCC(=O)N[C@@H](CCCNC(=N)N)C(=O)N[C@@H](CCC(=O)O)C(=O)N[C@H](C(=O)N[C@@H](CC(N)=O)C(=O)N[C@@H](C)C(=O)NCC(=O)N[C@@H](CCCNC(=N)N)C(=O)N[C@@H](CO)C(=O)N[C@@H](CC(=O)O)C(=O)N[C@H](C(=O)N[C@@H](CCCNC(=N)N)C(=O)N[C@@H](CCC(N)=O)C(=O)N[C@@H](CCC(N)=O)C(=O)N[C@@H](Cc1ccc(O)cc1)C(=O)N[C@@H](CCCNC(=N)N)C(=O)N[C@@H](CCCCN)C(=O)N[C@@H](CC(C)C)C(=O)N[C@@H](CC(C)C)C(N)=O)[C@@H](C)O)[C@@H](C)O
B4: Compound 62 (peptide)
peptide: Palmitoyl-RETNAGRSDTRQQY-NH2
SMILES: CCCCCCCCCCCCCCCC(=O)N[C@@H](CCCNC(=N)N)C(=O)N[C@@H](CCC(=O)O)C(=O)N[C@H](C(=O)N[C@@H](CC(N)=O)C(=O)N[C@@H](C)C(=O)NCC(=O)N[C@@H](CCCNC(=N)N)C(=O)N[C@@H](CO)C(=O)N[C@@H](CC(=O)O)C(=O)N[C@H](C(=O)N[C@@H](CCCNC(=N)N)C(=O)N[C@@H](CCC(N)=O)C(=O)N[C@@H](CCC(N)=O)C(=O)N[C@@H](Cc1ccc(O)cc1)C(N)=O)[C@@H](C)O)[C@@H](C)O
B5: Compound 61 (peptide)
peptide: Palmitoyl-RETNAGRSDTRQQYRF-NH2
SMILES: CCCCCCCCCCCCCCCC(=O)N[C@@H](CCCNC(=N)N)C(=O)N[C@@H](CCC(=O)O)C(=O)N[C@H](C(=O)N[C@@H](CC(N)=O)C(=O)N[C@@H](C)C(=O)NCC(=O)N[C@@H](CCCNC(=N)N)C(=O)N[C@@H](CO)C(=O)N[C@@H](CC(=O)O)C(=O)N[C@H](C(=O)N[C@@H](CCCNC(=N)N)C(=O)N[C@@H](CCC(N)=O)C(=O)N[C@@H](CCC(N)=O)C(=O)N[C@@H](Cc1ccc(O)cc1)C(=O)N[C@@H](CCCNC(=N)N)C(=O)N[C@@H](Cc1ccccc1)C(N)=O)[C@@H](C)O)[C@@H](C)O
B6: Compound 68 (peptide)
peptide: Palmitoyl-TNAGRSDTRQQYRKLL-NH2
SMILES: CCCCCCCCCCCCCCCC(=O)N[C@H](C(=O)N[C@@H](CC(N)=O)C(=O)N[C@@H](C)C(=O)NCC(=O)N[C@@H](CCCNC(=N)N)C(=O)N[C@@H](CO)C(=O)N[C@@H](CC(=O)O)C(=O)N[C@H](C(=O)N[C@@H](CCCNC(=N)N)C(=O)N[C@@H](CCC(N)=O)C(=O)N[C@@H](CCC(N)=O)C(=O)N[C@@H](Cc1ccc(O)cc1)C(=O)N[C@@H](CCCNC(=N)N)C(=O)N[C@@H](CCCCN)C(=O)N[C@@H](CC(C)C)C(=O)N[C@@H](CC(C)C)C(N)=O)[C@@H](C)O)[C@@H](C)O
B7: Compound 60 (peptide)
peptide: Palmitoyl-RETNAGRSDTRQQYRK-NH2
SMILES: CCCCCCCCCCCCCCCC(=O)N[C@@H](CCCNC(=N)N)C(=O)N[C@@H](CCC(=O)O)C(=O)N[C@H](C(=O)N[C@@H](CC(N)=O)C(=O)N[C@@H](C)C(=O)NCC(=O)N[C@@H](CCCNC(=N)N)C(=O)N[C@@H](CO)C(=O)N[C@@H](CC(=O)O)C(=O)N[C@H](C(=O)N[C@@H](CCCNC(=N)N)C(=O)N[C@@H](CCC(N)=O)C(=O)N[C@@H](CCC(N)=O)C(=O)N[C@@H](Cc1ccc(O)cc1)C(=O)N[C@@H](CCCNC(=N)N)C(=O)N[C@@H](CCCCN)C(N)=O)[C@@H](C)O)[C@@H](C)O
B8: Compound 57 (peptide)
peptide: Palmitoyl-RQQYRKLLKSTL-NH2
SMILES: CCCCCCCCCCCCCCCC(=O)N[C@@H](CCCNC(=N)N)C(=O)N[C@@H](CCC(N)=O)C(=O)N[C@@H](CCC(N)=O)C(=O)N[C@@H](Cc1ccc(O)cc1)C(=O)N[C@@H](CCCNC(=N)N)C(=O)N[C@@H](CCCCN)C(=O)N[C@@H](CC(C)C)C(=O)N[C@@H](CC(C)C)C(=O)N[C@@H](CCCCN)C(=O)N[C@@H](CO)C(=O)N[C@H](C(=O)N[C@@H](CC(C)C)C(N)=O)[C@@H](C)O
B9: Compound 3 (peptide)
peptide: Palmitoyl-LAYFRRLHSTRNY-NH2
SMILES: CCCCCCCCCCCCCCCC(=O)N[C@@H](CC(C)C)C(=O)N[C@@H](C)C(=O)N[C@@H](Cc1ccc(O)cc1)C(=O)N[C@@H](Cc1ccccc1)C(=O)N[C@@H](CCCNC(=N)N)C(=O)N[C@@H](CCCNC(=N)N)C(=O)N[C@@H](CC(C)C)C(=O)N[C@@H](Cc1c[nH]cn1)C(=O)N[C@@H](CO)C(=O)N[C@H](C(=O)N[C@@H](CCCNC(=N)N)C(=O)N[C@@H](CC(N)=O)C(=O)N[C@@H](Cc1ccc(O)cc1)C(N)=O)[C@@H](C)O
B10: Compound 69 (peptide)
peptide: Palmitoyl-TNAGRSDTRQQYRK-NH2
SMILES: CCCCCCCCCCCCCCCC(=O)N[C@H](C(=O)N[C@@H](CC(N)=O)C(=O)N[C@@H](C)C(=O)NCC(=O)N[C@@H](CCCNC(=N)N)C(=O)N[C@@H](CO)C(=O)N[C@@H](CC(=O)O)C(=O)N[C@H](C(=O)N[C@@H](CCCNC(=N)N)C(=O)N[C@@H](CCC(N)=O)C(=O)N[C@@H](CCC(N)=O)C(=O)N[C@@H](Cc1ccc(O)cc1)C(=O)N[C@@H](CCCNC(=N)N)C(=O)N[C@@H](CCCCN)C(N)=O)[C@@H](C)O)[C@@H](C)O
B11: Compound 66 (peptide)
peptide: Palmitoyl-RSDTRQQYRKLLKS-NH2
SMILES: CCCCCCCCCCCCCCCC(=O)N[C@@H](CCCNC(=N)N)C(=O)N[C@@H](CO)C(=O)N[C@@H](CC(=O)O)C(=O)N[C@H](C(=O)N[C@@H](CCCNC(=N)N)C(=O)N[C@@H](CCC(N)=O)C(=O)N[C@@H](CCC(N)=O)C(=O)N[C@@H](Cc1ccc(O)cc1)C(=O)N[C@@H](CCCNC(=N)N)C(=O)N[C@@H](CCCCN)C(=O)N[C@@H](CC(C)C)C(=O)N[C@@H](CC(C)C)C(=O)N[C@@H](CCCCN)C(=O)N[C@@H](CO)C(N)=O)[C@@H](C)O
B12: Compound 56 (peptide)
peptide: Palmitoyl-DTRQQYRKLLKSTL-NH2
SMILES: CCCCCCCCCCCCCCCC(=O)N[C@@H](CC(=O)O)C(=O)N[C@H](C(=O)N[C@@H](CCCNC(=N)N)C(=O)N[C@@H](CCC(N)=O)C(=O)N[C@@H](CCC(N)=O)C(=O)N[C@@H](Cc1ccc(O)cc1)C(=O)N[C@@H](CCCNC(=N)N)C(=O)N[C@@H](CCCCN)C(=O)N[C@@H](CC(C)C)C(=O)N[C@@H](CC(C)C)C(=O)N[C@@H](CCCCN)C(=O)N[C@@H](CO)C(=O)N[C@H](C(=O)N[C@@H](CC(C)C)C(N)=O)[C@@H](C)O)[C@@H](C)O
B13: Compound 65 (peptide)
peptide: Palmitoyl-AGRSDTRQQYRKLLKS-NH2
SMILES: CCCCCCCCCCCCCCCC(=O)N[C@@H](C)C(=O)NCC(=O)N[C@@H](CCCNC(=N)N)C(=O)N[C@@H](CO)C(=O)N[C@@H](CC(=O)O)C(=O)N[C@H](C(=O)N[C@@H](CCCNC(=N)N)C(=O)N[C@@H](CCC(N)=O)C(=O)N[C@@H](CCC(N)=O)C(=O)N[C@@H](Cc1ccc(O)cc1)C(=O)N[C@@H](CCCNC(=N)N)C(=O)N[C@@H](CCCCN)C(=O)N[C@@H](CC(C)C)C(=O)N[C@@H](CC(C)C)C(=O)N[C@@H](CCCCN)C(=O)N[C@@H](CO)C(N)=O)[C@@H](C)O
B14: Compound 64 (peptide)
peptide: Palmitoyl-TNAGRSDTRQQYRKLLKS-NH2
SMILES: CCCCCCCCCCCCCCCC(=O)N[C@H](C(=O)N[C@@H](CC(N)=O)C(=O)N[C@@H](C)C(=O)NCC(=O)N[C@@H](CCCNC(=N)N)C(=O)N[C@@H](CO)C(=O)N[C@@H](CC(=O)O)C(=O)N[C@H](C(=O)N[C@@H](CCCNC(=N)N)C(=O)N[C@@H](CCC(N)=O)C(=O)N[C@@H](CCC(N)=O)C(=O)N[C@@H](Cc1ccc(O)cc1)C(=O)N[C@@H](CCCNC(=N)N)C(=O)N[C@@H](CCCCN)C(=O)N[C@@H](CC(C)C)C(=O)N[C@@H](CC(C)C)C(=O)N[C@@H](CCCCN)C(=O)N[C@@H](CO)C(N)=O)[C@@H](C)O)[C@@H](C)O

biological target: PTHR1 receptor
Sequence (P25961 whole entry): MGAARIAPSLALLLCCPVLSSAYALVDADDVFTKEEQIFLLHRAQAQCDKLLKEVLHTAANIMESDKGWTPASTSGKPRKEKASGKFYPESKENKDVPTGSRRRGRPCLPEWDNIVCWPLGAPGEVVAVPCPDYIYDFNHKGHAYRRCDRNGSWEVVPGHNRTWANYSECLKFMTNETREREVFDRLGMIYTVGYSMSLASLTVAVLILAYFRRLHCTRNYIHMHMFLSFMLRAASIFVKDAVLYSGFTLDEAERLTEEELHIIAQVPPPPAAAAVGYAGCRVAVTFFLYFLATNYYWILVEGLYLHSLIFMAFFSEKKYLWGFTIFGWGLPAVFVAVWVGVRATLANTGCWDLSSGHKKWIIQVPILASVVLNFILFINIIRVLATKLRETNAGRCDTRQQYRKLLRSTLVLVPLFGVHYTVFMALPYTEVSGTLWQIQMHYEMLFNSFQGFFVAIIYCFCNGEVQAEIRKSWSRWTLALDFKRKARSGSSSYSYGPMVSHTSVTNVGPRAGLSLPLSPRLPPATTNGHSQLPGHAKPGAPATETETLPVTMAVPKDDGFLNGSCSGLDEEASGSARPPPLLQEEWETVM

With B1 as the binder, how does the Fold Shift of EC50 read?
Its Fold Shift of EC50 is 17.7 fold.

What about the Inhibition of Maximal Response of the same binder?
The Inhibition of Maximal Response was 0.0367.

Which results are given for B2?
Fold Shift of EC50: 6 fold; Inhibition of Maximal Response: 6.9%

With B3 as the binder, how does the Fold Shift of EC50 read?
The Fold Shift of EC50 was 5.2 fold.

What about the Inhibition of Maximal Response of the same binder?
Its Inhibition of Maximal Response is 3%.

What does the source list for B4?
Fold Shift of EC50: 1.1 fold; Inhibition of Maximal Response: -5.4%

What does the source list for B5?
Fold Shift of EC50: 0.7 fold; Inhibition of Maximal Response: -47.6%

For B6, which Fold Shift of EC50 is on record?
The Fold Shift of EC50 was 12.4 fold.

And the Inhibition of Maximal Response?
The Inhibition of Maximal Response was -0.0684.

B7 was tested. Which Fold Shift of EC50 did it give?
The Fold Shift of EC50 was 3.3 fold.

What about the Inhibition of Maximal Response of the same binder?
Its Inhibition of Maximal Response is 4.3%.

B8 was tested. Which Fold Shift of EC50 did it give?
The Fold Shift of EC50 was 15.6 fold.

And the Inhibition of Maximal Response?
The Inhibition of Maximal Response was -38.8%.

With B9 as the binder, how does the Fold Shift of EC50 read?
Its Fold Shift of EC50 is 0.7 fold.

And the Inhibition of Maximal Response?
Its Inhibition of Maximal Response is -51.4%.

With B10 as the binder, how does the Fold Shift of EC50 read?
Its Fold Shift of EC50 is 5.2 fold.

What about the Inhibition of Maximal Response of the same binder?
Its Inhibition of Maximal Response is 2.5%.

What does the source list for B11?
Fold Shift of EC50: 16.4 fold; Inhibition of Maximal Response: -39%

Which results are given for B12?
Fold Shift of EC50: 1.9 fold; Inhibition of Maximal Response: -30.4%

Which results are given for B13?
Fold Shift of EC50: 14.7 fold; Inhibition of Maximal Response: -0.359

How did the Fold Shift of EC50 turn out when B14 was run?
Its Fold Shift of EC50 is 7 fold.

What about the Inhibition of Maximal Response of the same binder?
The Inhibition of Maximal Response was -0.1%.
